Test: soluble on expression in E. coli; label from the status in PepcDB or PDB records

Row | Sequence | soluble on expression in E. coli
1 | MASDWRRQSTSRGIPNEGQNDEKGKPLIGRSFLLEIENRILRTNVAEGLHISGATIIDSFDDASPQCVISDHPMAQKLEKAKKDDPLFKNEKMLKIMPALLRQAVNRNIKVRTPERFLNQMNTWLDRQGKTTSATTSNSTIRGKPSFGRENSAKIERTTPRLVPRMPRVSSDQTSSRPKEERCFLRIDVPGKRPEIRNVSKESFSIVYSGRDTGFSIFKAAESSLVERRQREYDSFLKGKYEPSKKTFKFDERDNYCQFCQKTILGDRKDHERTDEHRNKARTQGITQTMERIVLNARLRAERQEAALKRNQRKSRESVMFVEKSKRANVEYEYGENEIKANWLMLKANTVEKTTEKTSILSPRRRQKRMRSLSSQGDI | not soluble
2 | MVGLADVAVLYSGGKDSNYALYWALKSGLRVRYLVSMVSENEESYMYHTPNVELTSLQARALGIPIIKGFTKGEKEKEVEDLKNVLEGLKVDGIVAGALASRYQKERIENVARELGLKVYTPAWEKDPYQYMLEIIKLGFKVVFVAVSAYGLNESWLGRELNYKNLEELKKLSEKYGIHIAGEGGEFETFVLDMPFFKAKIVIDDAEKFWDGLSGKFIIKRAHLEWK | soluble
3 | MGSDKIHHHHHHMMSEEKILSVDFTQEDAYTEILPRSPLVSSYHAQWQGLRLDVHQQPGHETPEHSPQQHVLTVSLEQQIVRSERILDGRLQYENIAKGDVAIIPAQTRHISRWQSEAKFLVLSMEPAFFTRMVIEAGDLQKIEIKPRFAAPDPLIQQIGLALQTELESEHKGSSIYIESLTTTLCIHLLKHYCVTGGTILDDHHHKGLSHWKLRQAISYIHENLDQDLTLVDISTAVGMSMYYFSRQFKQSTGFAPHQYVMNCRIERAKKLLGSTNKTIEQICTQVGFQSQSHFTNVFRKLMGITPRVYREQVKT | not soluble
4 | MGHHHHHHSHANSIDLIGYVHQPVQFDSTLDGKFWAGTVISHEPSSDSKSESDSSSNFWIPVLFEGDLAHTANSYLKKNDRVHITGQILGDVIQSGANSDQAHVQLFKSFHGSFSHQVMVRD | not soluble
5 | SKSFNYSVSFNLSDYQGTVLKYSNPKGLIYDYYVGKKMGTIWGYTTDHIMTDPAEAKAINDSGVQNKFGGDWVVGDIKYVNLDDDPNINDGNQTLEDHGDLSIIGNDTPRYNFGFGFNADWNGIDFSMFLQGTMKRDLWLEGPVAFGLGGGQWGSNVWKNTLDCWREDGSNPDPWLPRLYLWSTSKNLQKQTRYMDTGAYCRLKNIQLGYSLPGAIINKVGLEKVRIYFSGDNLLTFSGINENFDPEAPWGGAYPISKSISFGVNVTF | not soluble
6 | MGSDKIHHHHHHMIHKLADVQSQNIGDNTKVWQFCVILAGAVIGRNCNICANSLIENDVVIGDNVTIKSGVQIWDGIHIQDDVFIGPNVTFTNDKQPRSKIYPDEYLKTIVKKGASIGANSTILPGILIGENAMVGAGAVITKNVPDNAIVIGNPGRITGYVEANTGVIMPSNNFELKLQMSKVKGVSLHKFHLVNDLRGNLSVGEFEKDIPFTPKRYFTVFGVPNKEVRGEHAHKECKQFLICVSGNCSVLVDDGENREEYVLDSIDKGIYLPPMTWGVQYKYSKDAVLLVFASHYYDSDDYIRDYSTFKQMRQN | not soluble
7 | MAHHHHHHMSHYLLVTFTFNCPEIRILGPIKEQTIEKLNDVIPNATTTSRSNRTALPKFEYLPNPNHWYIKLDRQFCDEDGKSHLMVLLLDALSEEGSWRLVSSFVTKEPSGTGSKEGTETHTLFLNKLLAEDS | soluble
8 | MAHHHHHHMYLGSIKNFEDDFLCKGEYKQVYLSLEQNENNEAIEIDICCDNNIYDILQFCREKYGIYGEYIIDSCGNVIHSIKDIIDGDTLYLKEKKEDMNFFSKIKNNFIVNDYIVEKRIGSGGFGIVFQGVHIQTKQKVALKFIPKSNFLDVTDVHRVFIEIQTLRGLIHNNIIKMYDVNHFQNYVCLIMEYAINGDLKNYIKNKFNGFLSEKEAHDLFLQIVKGVYYCHSKHIVHRDLKLENILLDEKMTCKIADFGLSDFVNVDQNIKTEAGTKAYIAPEIIFNQTINYSVFKLDIWSLGILLFIMTQGFAPFKYMEKELKNFESNTLNYANDISDDLKDLISLMLNVDPNKRPIIVEILNHRWFENYKES | soluble
9 | QEQAVILRFGKYYETVGPGLNFYFPPIDKRFQENVTRERAYSKQGQMLTEDENIVEVPLTVQYKISNLQDFVLNVDQPEVSLQQATESALRHVAGSTTMDRILTEGREQMATEVRERLQRFLDTYRTGITVTQVNIQSAQAPREVQEAFDDVIRAREDEQREKNQAEAYANGVVPEARGQAQRIIEEANGYRDEVISRAQGEADRFSKLLVEYRKAPEVTRERLYLDTMQEVFSQTSKVLVTGQQGQNNLLYLPLDKMIDGRNAAPATGAGASAGGGSASASDLGSRIVNDLRQQDARTRESR | not soluble
10 | MCLNRVNEWVLEFNSRTKKLLIDLNKRLPGAKFSFADTYPAVLDLINNPTHYGFKIANTSCCNVDTSVGGLCLPNSKMCKNRQDFVFWDAFHPSDSANQILADHLFSSLLSSSSPSPAPKPRQ | not soluble
11 | MATSSHLNWLIIRNNNAFLLKKRDVKKPFSTEPNNLASVSSYRYSGIVHKKTLGVVPAADKKGFTAVLKKGKYAQRPAKNTVRVDFKAGPRRSLKKLKNLLIGSKYRKDLTQAALRRASAVLRSQKPAPVKGKKAEFAKGKKPELEHHHHHH | not soluble
12 | MAHHHHHHMLSRVAAVKAPRTHNRRRVTGSSGRTREGGESEPRRPNMSRRVFPSAVLLLLVTMMCCDRGAATAQVEKATDASTPSGSALTGAITAEGSASGGVERPQRVDLFVPQTKQVLQKTGTDSGRRDSFVSPSLVSAGGVIAAFAEGHINAKNPIPNQLSRLLMLLRSTSTLRGNGPLLLKRSIKKEWSARTVLGKAEGNESFDVVRHPTTTMKGNKMFLLAGSTALSDLNGSWKEGSLEIKLVVGEVTKPTDSEQSKRIEWGEIKSPLNGSTLAAHKGNLTECLASGGSGVLMEDGTLVFSLMAVNEKNDGVYSMIIYSKDNGSTWALSEDISPAKCLNPRITEWEGSLLMIVDCENDQRV | not soluble
13 | MGSDKIHHHHHHPVAIIGGGPVGLAAAAHLAVRDVPFVLFEGKSEVGASILEWKHVSLFSPWKYNIDRAAKSLLEKESWKEPAGDRLPTGEQLVRDYLQPLAETKALKPYIYTNAPVQSIYRKGIDKIKDHNRENTPFIIRYKQDNDQKTLRARAVIDATGTWFSPNPIGAGGVPAIGEEEAKDSIYYGIPDVKGKDRSRYEGKTILVVGSGHSAIHTLLDLAQLKEAAPSTRILWAIRRNSPNGLFGGGQEDALPARGQLGLALEALLSKQKVELISSFEMEQIDRVEGRLSVVGVQNESPISLPLVDEIVANTGARPTVDYHRDIRYQLDSKLESVPALAPLIDPNIHSCGTVRPHGEKELRQPEKNFYIAGVKSYGRAPTFLLATGYEQVRSIVASLAGSKKEAERVELQLPKTGVCKSDFLAKRSCC | not soluble
14 | MSLKILDCTLRDGGYYTNWDFNSKIVDAYILAMNELPIDYLEVGYRNKPSKEYMGKFGYTPVSVLKHLRNISTKKIAIMLNEKNTTPEDLNHLLLPIIGLVDMIRIAIDPQNIDRAIVLAKAIKTMGFEVGFNVMYMSKWAEMNGFLSKLKAIDKIADLFCMVDSFGGITPKEVKNLLKEVRKYTHVPVGFHGHDNLQLGLINSITAIDDGIDFIDATITGMGRGAGNLKMELLLTYLNKHHGLNVDFNVLGNIITTFTPLLEKYQWGTNLPYMLSGANNIPQKEVMDWVTNRVYSFNSIIRALDNRKNKMEDNAKYPLLNIKNKFDRVVIIGGGFNAIEHKEAIKSFIETHTNTAIIFATARYAREYLDVNAPHFYCLVGNEGHRLTHNINPQNLSGICVLPPYPRPMGTEVPEYAKNVTFELENITFIDQYKDSVTTIALQLAILLTDQDIYLVGYDGYPGNVLSEKEMALTNENRTIFATYTTISGKILKSLTPSIYKEIEVVSVYQFEGHHHHHH | soluble
15 | FTANIKGLTQASRNANDGISIAQTTEGALNEINNNLQRVRELAVQSANSTNSQSDLDSIQAEITQRLNEIDRVSGQTQFNGVKVLAQDNTLTIQVGANDGETIDIDLKQINSQTLGLDTLNVQQKYKVSDTAATVTGYADTTIALDNSTFKASATGLGGTDQKIDGDLKFDDTTGKYYAKVTVTGGTGKDGYYEVSVDKTNGEVTLAGGATSPLTGGLPATATEDVKNVQVANADLTEAKAALTAAGVTGTASVVKMSYTDNNGKTIDGGLAVKVGDDYYSATQNKDGSISINTTKYTADDGTSKTALNKLGGADGKTEVVSIGGKTYAASKAEGHNFKAQPDLAEAAATTTENPLQKIDAALAQVDTLRSDLAAVQNRFNSAITNLGNTVNNLTSAR | soluble
16 | LKPHIAVAISGSIYNEAVIKEAFHIAQKEHAKFTAIYIDVFEKNRQYKDSQKQVHQHLMLAKSLGAKVKVVYSQTVALGLDEWCKNQDVTKLIIGQHIRNKWRDFFNTPLIDHLMSFEHS | not soluble
17 | DKSYRSTKEIMEYANRFLNDTSIIPMVRSGEKVQSLSISSEDEFVDRVTYAIDDMKKEGIETIGVICENMHDTKYFGELLKSKKYINIIEKENQIYTGGETVMPSYFAKGLEFDGVILVSRENKENKDRVLYVMATRALHKLYDFHIEF | not soluble
18 | PDAARKAQILWCQPDRAKAWTDWMRKGKFPVGGSICDNPVAETTSLGEQFGFNGTPTLVFPNGRSQSGYSPMPQLEEIIRKNQ | not soluble
19 | MKGFYHHPSRTISLRNNLSERQLRSTLAHELGHAMRGDVPTSGVFAEHIERRADEFAARLLISPIEYRLAESLHDGHIGAIAYELGVTVRLVEVWRDMHDRITA | not soluble
20 | MIKLKNVTKTYKMGEEIIYALKNVNLNIKEGEFVSIMGPSGSGKSTMLNIIGCLDKPTEGEVYIDNIKTNDLDDDELTKIRRDKIGFVFQQFNLIPLLTALENVELPLIFKYRGAMSGEERRKRALECLKMAELEERFANHKPNQLSGGQQQRVAIARALANNPPIILADEPTGALDSKTGEKIMQLLKKLNEEDGKTVVVVTHDINVARFGERIIYLKDGEVEREEKLRGFDDR | soluble
21 | MGSDKIHHHHHHMKTLGERSKERRKIINLTQLQLSKKVGVSSVTISQWESGDTSPKGENLYKLAQALQCSPDWLMFGDSKNTKKPESNAEWAGGFDLWDNDSPLGEDEVEIPFYMDVELSAGEGIAEGVEYKGPKLRFAKSSLKRQGVNTDHAACVKVNGNSMEPVLPHGSTVGVDTSATEIVDGKMYAINHDGMMRVKMLYKLPGGGLRLRSYNTDEWPDEHINNEQLKNIKVIGKVFWYSVLL | not soluble
22 | MLQFYRNLGKSGLRVSCLGLGTWVTFGGQITDEMAEHLMTLAYDNGINLFDTAEVYAAGKAEVVLGNIIKKKGWRRSSLVITTKIFWGGKAETERGLSRKHIIEGLKASLERLQLEYVDVVFANRPDPNTPMEETVRAMTHVINQGMAMYWGTSRWSSMEIMEAYSVARQFNLIPPICEQAEYHMFQREKVEVQLPELFHKIGVGAMTWSPLACGIVSGKYDSGIPPYSRASLKGYQWLKDKILSEEGRRQQAKLKELQAIAERLGCTLPQLAIAWCLRNEGVSSVLLGASNAEQLMENIGAIQVLPKLSSSIVHEIDSILGNKPYS | soluble

Source: the DeepSol protein solubility set
